Data on three substances can be found in patent US20100215656A1.

The target of one experiment is CD22 (human) (UniProt P20273). The experiment can be described thus: cell-based or functional assay.
The target of another experiment is mesothelin (UniProt Q13421). Kind of experiment: cell-based or functional assay.
UniProt Q13421, sequence (Q13421 other isoform, or with tags, fused parts or gaps limits assumed): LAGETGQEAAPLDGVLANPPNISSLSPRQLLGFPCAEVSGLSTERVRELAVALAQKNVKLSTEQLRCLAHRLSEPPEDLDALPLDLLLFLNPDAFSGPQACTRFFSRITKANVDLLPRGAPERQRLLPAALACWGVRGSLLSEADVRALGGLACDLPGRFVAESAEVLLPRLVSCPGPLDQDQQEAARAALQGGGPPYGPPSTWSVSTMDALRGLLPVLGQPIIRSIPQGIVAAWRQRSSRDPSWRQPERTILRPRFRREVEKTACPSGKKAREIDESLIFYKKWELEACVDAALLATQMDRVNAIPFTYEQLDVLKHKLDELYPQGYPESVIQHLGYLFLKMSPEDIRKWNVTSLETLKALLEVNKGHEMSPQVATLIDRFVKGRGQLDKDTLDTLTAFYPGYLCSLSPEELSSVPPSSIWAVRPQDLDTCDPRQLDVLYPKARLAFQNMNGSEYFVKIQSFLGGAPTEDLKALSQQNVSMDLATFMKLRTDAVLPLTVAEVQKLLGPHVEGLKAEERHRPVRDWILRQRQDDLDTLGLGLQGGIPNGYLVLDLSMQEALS

UniProt P20273, sequence (P20273 20-847): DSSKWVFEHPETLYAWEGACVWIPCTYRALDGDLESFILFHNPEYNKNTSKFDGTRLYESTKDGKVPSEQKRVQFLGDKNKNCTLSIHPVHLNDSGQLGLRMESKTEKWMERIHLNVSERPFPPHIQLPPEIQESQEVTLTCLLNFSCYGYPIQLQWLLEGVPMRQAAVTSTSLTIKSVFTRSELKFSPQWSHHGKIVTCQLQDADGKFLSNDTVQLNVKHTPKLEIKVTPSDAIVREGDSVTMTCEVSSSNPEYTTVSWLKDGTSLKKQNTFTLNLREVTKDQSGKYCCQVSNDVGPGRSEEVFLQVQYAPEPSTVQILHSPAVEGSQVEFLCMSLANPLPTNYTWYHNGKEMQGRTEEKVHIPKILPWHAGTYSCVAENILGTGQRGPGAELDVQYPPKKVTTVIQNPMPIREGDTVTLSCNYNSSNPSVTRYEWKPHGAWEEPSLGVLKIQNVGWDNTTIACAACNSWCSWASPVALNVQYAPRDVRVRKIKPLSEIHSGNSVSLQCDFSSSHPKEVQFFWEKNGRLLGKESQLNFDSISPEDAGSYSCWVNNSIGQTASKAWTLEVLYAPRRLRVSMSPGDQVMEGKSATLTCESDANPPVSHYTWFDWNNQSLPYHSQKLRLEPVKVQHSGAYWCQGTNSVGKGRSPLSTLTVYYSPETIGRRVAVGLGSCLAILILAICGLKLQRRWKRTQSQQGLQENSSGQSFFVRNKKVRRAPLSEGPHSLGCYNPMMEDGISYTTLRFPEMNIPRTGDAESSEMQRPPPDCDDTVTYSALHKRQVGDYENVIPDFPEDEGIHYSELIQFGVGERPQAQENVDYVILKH

With “HA22-LR (anti-CD22 dsFv of HA22 fused to the 25-kDa lysosome-resistant PE fragment, PE25 / PE-LR)”, in the experiment with CD22 (human), the Relative Activity (against HA22) on CA46 cells came to 1.15, the Relative Activity (against HA22) on Daudi cells amounted to 1.12, the Relative Activity (against HA22) on KOPN-8 cells turned out to be 0.22 and the Relative Activity (against HA22) on Raji cells was 0.49. Moreover, in the experiment with CD22 (human), the Relative Activity (against HA22) on Ramos cells amounted to 0.91; the Relative Activity (against HA22) on WSU-CLL cells worked out at 2.12; the Relative Activity (against HA22), cell death, CLL #1 is 16.2; the Relative Activity (against HA22), cell death, CLL #2 worked out at 7.65. In the experiment with CD22 (human), this substance registered a Relative Activity (against HA22), cell death, HCL #2 of 0.08; a Relative Activity (against HA22), cell death, HCL #3 of 1.39; a Relative Activity (against HA22), protein synthesis, CLL #1 of more than 210; a Relative Activity (against HA22), protein synthesis, CLL #2 of more than 16.8. In the experiment with CD22 (human), this substance registered a Relative Activity (against HA22), protein synthesis, CLL #3 of 2.07; a Relative Activity (against HA22), protein synthesis, CLL #4 of 51.8; a Relative Activity (against HA22), protein synthesis, CLL #5 of 2.16; a Relative Activity (against HA22), protein synthesis, HCL #1 of 0.88. In the experiment with CD22 (human), this substance displayed a Relative Activity (against HA22), protein synthesis, HCL #2 of 0.14; a Relative Activity (against HA22), protein synthesis, HCL #3 of more than 1.76; an inhibition of protein synthesis at 1 ng/ml, patient cells CLL #2 of 55%.
In the experiment with mesothelin, SS1P (antibody SS1 fused to PE38) yielded an IC50 (ng/ml), cytotoxicity on A431/K5 cells of 0.2 ng/mL; an IC50 (ng/ml), cytotoxicity on A1847 cells of 4.06 ng/mL; an IC50 (ng/ml), cytotoxicity on HAY cells of 4.54 ng/mL; an IC50 (ng/ml), cytotoxicity on KB31 cells of 5.15 ng/mL. In the experiment with mesothelin, this substance registered an IC50 (ng/ml), cytotoxicity on L55 cells of 4.77 ng/mL and an IC50 (ng/ml), cytotoxicity on OVCAR-8 cells of 2.32 ng/mL.
As for “SS1-PE-LR (antibody SS1 fused to the PE used in HA22-LR)”, in the experiment with mesothelin, the IC50 (ng/ml), cytotoxicity on A431/K5 cells stood at 1.19 ng/mL; the IC50 (ng/ml), cytotoxicity on A1847 cells (*Incomplete cell killing) amounted to 4.24 ng/mL; the IC50 (ng/ml), cytotoxicity on HAY cells came to 1.22 ng/mL; the IC50 (ng/ml), cytotoxicity on KB31 cells (*Incomplete cell killing) is more than 1000 ng/mL. In the experiment with mesothelin, this substance had an IC50 (ng/ml), cytotoxicity on L55 cells of 3.87 ng/mL; an IC50 (ng/ml), cytotoxicity on OVCAR-8 cells (*Incomplete cell killing) of 4.29 ng/mL; a Relative Activity (against the PE38 immunotoxin) on A431/K5 cells of 0.17; a Relative Activity (against the PE38 immunotoxin) on A1847 cells of 0.96. In the experiment with mesothelin, this substance came in with a Relative Activity (against the PE38 immunotoxin) on HAY cells of 3.72, a Relative Activity (against the PE38 immunotoxin) on KB31 cells (fold decrease) of more than 200, a Relative Activity (against the PE38 immunotoxin) on L55 cells of 1.23 and a Relative Activity (against the PE38 immunotoxin) on OVCAR-8 cells of 0.54.
